In patent publication US20100086555A1:

B1: FE53 (antibody, V domains shown)
VH: QVQLVQSGAEVKKPGSSVKVSCKASGVTSSNYPITWVRQAPGQGLEWMGGVLPLFGVTNYAQKFQGRVTISADKSTNTAYMELSSLRSEDTAVYYCARGKRPGYCSGGVCSSDYWGQGTLVTVSS
VL: DIQMTQSPSSLSASVGDRVSITCQASQDISRYLNWYQQKPGEAPKLLIYDASNLETGVPSRFSGSGSGTDFTFTISSLQPEDIATYFCQQYGYLPLTFGPGTKVDSK
B2: FB139 (antibody, V domains shown)
VH: QVQLVQSGAEVKKAGSSVKVSCQSSGVTFSMYAVSWVRQAPGQGLEWMGGIIPLFGTTTYAQKFEGRLTITADTSTNMAYLELRSLRSEDTAVYFCARAGTTVTRFNWFDPWGQGTLVTVSS
VL: EVVLTQSPGTLSLSPGQRATLSCRASQSVSSSYLAWYQQKPGQAPRLLIYDASNRATGIPDRFSGSGSGTDFTLTISRLEPEDFAVYYCQQYGSSPYTFGQGTKLEIK

Experiments:
[1] = molecular target: recombinant trimeric H5 HA (A/VN/1203/04) (influenza A virus A/VN/1203/04 (H5N1)); experiment: competition ELISA on recombinant trimeric H5 HA; competitor C179
[2] = molecular target: recombinant trimeric H5 HA (A/VN/1203/04) (influenza A virus A/VN/1203/04 (H5N1)); experiment: competition ELISA on recombinant trimeric H5 HA; competitor FLD21
[3] = molecular target: H1 HA A/Texas/3/99 (ELISA antigen) (influenza A virus A/Texas/3/99 (H1)); experiment: ELISA
[4] = molecular target: H1 HA A/SI/3/06 (ELISA antigen) (influenza A virus A/SI/3/06 (H1)); experiment: ELISA
[5] = molecular target: H9 HA A/HK/1073/99 (ELISA antigen) (influenza A virus A/HK/1073/99 (H9)); experiment: ELISA
[6] = molecular target: H5 HA A/INDO/5/05 (ELISA antigen) (influenza A virus A/INDO/5/05 (H5N1)); experiment: ELISA
[7] = molecular target: recombinant trimeric H5 HA (A/VN/1203/04) (influenza A virus A/VN/1203/04 (H5N1)); experiment: ELISA
[8] = molecular target: H9 HA A/ck/HK/G9/97 (on infectious virus) (influenza A virus A/ck/HK/G9/97 (H9N2)); experiment: cell-based or functional assay
[9] = molecular target: H5 HA A/WS/Mong/244/05 (on pseudotypes) (influenza A virus A/WS/Mong/244/05 (H5N1)); experiment: cell-based or functional assay
[10] = molecular target: H5 HA A/INDO/5/05 (on pseudotypes and on infectious virus) (influenza A virus A/INDO/5/05 (H5N1)); experiment: cell-based or functional assay
[11] = molecular target: H3 HA A/WY/3/03 (on infectious virus) (influenza A virus A/WY/3/03 (H3N2)); experiment: cell-based or functional assay
[12] = molecular target: H5 HA A/HK/213/03 (on pseudotypes) (influenza A virus A/HK/213/03 (H5N1)); experiment: cell-based or functional assay
[13] = molecular target: H5 HA A/VN/1203/04 (on pseudotypes and on infectious virus) (influenza A virus A/VN/1203/04 (H5N1)); experiment: cell-based or functional assay
[14] = molecular target: H1 HA A/SI/3/06 (on infectious virus) (influenza A virus A/SI/3/06 (H1N1)); experiment: cell-based or functional assay
[15] = molecular target: H9 HA A/HK/1073/99 (on infectious virus) (influenza A virus A/HK/1073/99 (H9N2)); experiment: cell-based or functional assay
[16] = molecular target: H1 HA A/NC/20/99 (on infectious virus) (influenza A virus A/NC/20/99 (H1N1)); experiment: cell-based or functional assay
[17] = molecular target: H5 HA A/Anhui/1/5 (on pseudotypes) (influenza A virus A/Anhui/1/5 (H5N1)); experiment: cell-based or functional assay
[18] = molecular target: H5 HA A/VN/1194/04 (on pseudotypes) (influenza A virus A/VN/1194/04 (H5N1)); experiment: cell-based or functional assay
[19] = molecular target: H5 HA A/HK/491/97 (on pseudotypes) (influenza A virus A/HK/491/97 (H5N1)); experiment: cell-based or functional assay
[20] = molecular target: H2 HA A/JP/305/57 (on infectious virus) (influenza A virus A/JP/305/57 (H2N2)) (UniProt P03451); experiment: cell-based or functional assay
[21] = molecular target: H1 HA A/PR/8/34 (on infectious virus) (influenza A virus A/PR/8/34 (H1N1)) (UniProt P03452); experiment: cell-based or functional assay

Binder | Competition (%) [1] [%] | Competition (%) [2] [%] | K50 [3] [µg/mL] | K50 [4] [µg/mL] | K50 [5] [µg/mL] | K50 [6] [µg/mL] | K50 [7] [µg/mL] | Neutralization of infectious viruses (IC50) [8] [µg/mL] | Neutralization of HA-pseudotypes (IC90) [9] [µg/mL] | Neutralization of HA-pseudotypes (IC90) [10] [µg/mL] | Neutralization of HA-pseudotypes (IC90) [12] [µg/mL] | Neutralization of HA-pseudotypes (IC90) [13] [µg/mL] | Neutralization of infectious viruses (IC50) [14] [µg/mL] | Neutralization of infectious viruses (IC50) [15] [µg/mL] | Neutralization of infectious viruses (IC50) [16] [µg/mL] | Neutralization of HA-pseudotypes (IC90) [17] [µg/mL] | Neutralization of HA-pseudotypes (IC90) [18] [µg/mL] | Neutralization of HA-pseudotypes (IC90) [19] [µg/mL] | also measured
B1 | 100 | < 20 | 0.015 | 0.375 | 0.014 | 0.084 | 0.015 | 2 | 0.077 | 0.491 | 0.066 | 0.098 | 6 | 8 | 37 | 0.065 | 0.008 | 0.046 | Neutralization H9N2 IC50 [8]: 0.1 µg/mL; Neutralization H3N2 IC50 [11]: > 50 µg/mL; Neutralization H5N1 IC50 [13]: > 50 µg/mL; Neutralization H1N1 IC90 [14]: 6.2 µg/mL; Neutralization H1N1 IC90 [16]: 6.2 µg/mL; Neutralization H5pp IC90 [18]: 0.008 µg/mL
B2 | 100 | < 20 | 0.06 | 1.38 | 0.066 | 0.163 | 0.033 | 6 | 0.035 | 0.106 | 0.019 | 0.034 | 4 | 20 | 36 | 0.022 | 0.04 | 0.019 | Neutralization of infectious viruses (IC50) [10]: 36 µg/mL; Neutralization of infectious viruses (IC50) [20]: 50 µg/mL; Neutralization of infectious viruses (IC50) [13]: 36 µg/mL; Neutralization of infectious viruses (IC50) [21]: 5 µg/mL
